Results on 8 sequences are retold here after a protein production outcome set (Wang et al. 2014).

This data set is described as follows: label from the status in PepcDB records.
Regarding “MAGLSTAELVDIALEMAEMRTLPADSAVYVESTDLKRVMMGIDIGPAELLLARQLGCDGVIAHHPAGGSATLNFPEVLTRHVELMVEHGVPATAARDAIQGLLTRSLLRAQSANHDHTPSVARLLEMPFLNIHLPLDEVGRRIMVKTIQEAVEPLGDEARVQDAIDALMTLPEFAGAATRIMVPVGAVDQPLGKIAVVHGAGTNGGYAVARAYFDHGVRTVLYIHIAPEEAERLRREGGGNLIVTGHIASDLVGINRYVQALEERGVEVVRMSGL”, the protein production result is on record as “not failed”. With “MIKHPLKILFMHGLDSSRESTKFHAIESTNKFCITIDYRNLSYNTVADFYQNTIETIQPDLLIGHNLGGYWALKLSSQYHLAAIVANPSLAPLFRDDYPSLTSKELDTDSPKIAYIELGDESLNMYDIQNVLEDYMIVDSIEGGHHRLENPSKLNILIDHIQSEYFSHTIR” the entry was “failed”; with “TLHKERRIGRLSVLLLLNEAEESTQVEELERDGWKVCLGKVGSMDAHKVVAAIETASKKSGVIQSEGYRESHALYHATMEALHGVTRGEMLLGSLLRTVGLRFAVLRGNPYESEAEGDWIAVSLYGTIGAPIKGLEHETFGVGINHI”, “not failed”. Under “EAGGIGIWEWELKPNIFSWDKRMFELYEIPPHIKPNWQVWYECVLPEDRQHAEKVIRDSLQSRSPFKLEFRIAVKDGIRHIRALANRVLNKEGEVERLLGINMDMT” stands “failed”; under “MTIVGLKKTYLGLIDKKTGKIIAGPEGLTTDGLYMSNPKDLGTASANITNIAAAGTQKFGDNGLVDVVSSKSFPQVAAVWNNLPFDIKAKIKGEVSDKKGGYVQSQDLPQVALIIESELIDRSHSIFYAFGNGHMTETALNIQTDNAAQNRVEDALTYQSLAFEAWNNQGMKTFNSADSGFDKTAMLKEVMGGYAASGLGVLEHHHHHH”, “failed”; under “MRKTKTEALKTKEHLMLAALETFYRKGIARTSLNEIAQAAGVTRGALYWHFKNKEDLFDALFQRICDDIENCIAQDAEDAEGGSWAVFRHTLLHFFERLQSNDIYYKFHNILFLKCEHTEQNAAVIAIARKHQAIWREKITAVLTEAVENQDLADDLDKETAVIFIKSTLDGLIWRWFSSCERFDLGKTAPRIIGIMMDNLENHPDLRRK”, “not failed”.

In the case of “MTEIKYKVITKDAFALPYTIIKAKNQPTKGVIVYIHGGGLMFGKANDLSPQYIDILTEHYDLIQLSYRLLPEVSLDCIIEDVYASFDAIQSQYSNCPIFTFGRSSGAYLSLLIARDRDIDGVIDFYGYSRINTEPFKTTNSYYAKIAQSINETMIAQLTSPTPVVQDQIAQRFLIYVYARGTGKWINMINIADYTDSKYNIAPDELKTLPPVFIAHCNGDYDVPVEESEHIMNHVPHSTFERVNKNEHDFDRRPNDEAITIYRKVVDFLNAI”, the protein production result was “failed”.

Take “MKKSLLMLLLSAATLSSIEAQTIQQMKAGGPWPVRAAFKTDTVGMNGSKYNPADLLRQAYDATDKDLRNVSADKDGRIAGRKAGSKAERSEMAVYSFALTAEHFAKGDIEVFGQGRMSLWLDDKQIGIADSPNSKGDTTLRFSASLSLVPGTHHLLLKSLLLEGDTTATDVRVVLKPKTARDSSALYPNYTGKERLSLKHMMSGTFLSGGSLSPTGKYVLTSYRVSRDNKPAVTYNQLRDAKGNILLNLNEKEALGWMPHEDMLMVIRKEGNAKRLVAFDPMGKGEKTLVSNLPESQFRMSPDARYYLFYKQEKGPGKDPLFIRHLDPDDRQSDWRDRSQIYLLNAESGVYGPLTFGYSTTYIYDIAPDSKRALIGTLSTDWTRRPFRFATIMEYNMETGKADTLITRDPSIDAIQYTPDGKHLIVMGSADAFGNIGLNLKSGVTPNSYDKQFFLFDLSTRKATALTKNFNPSVSAGRFDRKNNYYYFRAENGSRKQLYRLDLKTLEISQIQTGEDVVQWFGVAADNGAVWYSGQSANNADRLYRLDGTKGKLVWDLSAEKLANIDFTPARDWNYTAPDGTVVEGWYYLPPQFDPSKKYPMLVYYYGGTSPINRTLEGHYSLAMYAAQGYVVYTLNPSGTTGYGQEYAARHVNAWGDRTADEIIGATKEFIRTHSFVNGKKVGCFGASYGGFMTQYLQTKTDIFAAAVSHAGISSISNYWGSGYWGMGYSTVASTDSYPWNNPDLYAGHSPLFRADKIHTPLLLLHGSVDTNVPTAESVNLYNALKILGREVEFIEFTEQDHFILEPERRIRWTNSICAWFARWLQDDPTWWNELYPPVNL”: the protein production result is reported as “failed”.
